Test results reported in patent US20110008766A1.

B1: DVD715 (antibody)
VH: QVQLQQSGAELMKPGASVKISCKASGYTFTSYWIEWIKQRPGHGLEWIGEILPGTGSLNNNEKFRDKATFTADTSSNTAYMQLSSLTSEDSAVYYCARGYRYDGWFAYWGQGTLVTVSAASTKGPQVQLQQSGAELMKPGASVKISCKASGYTFTSYWIEWIKQRPGHGLEWIGEILPGTGSLNNNEKFRDKATFTADTSSNTAYMQLSSLTSEDSAVYYCARGYRYDGWFAYWGQGTLVTVSA
VL: DIQMTQSPASLSASVGETVTITCRTSENIYSYLAWYQQKPGKSPHLLVYNTKTLAEGVPSRFSGSGSGTQFSLKINSLQPEDFGSYYCQHHYDSPLTFGSGTKLELKRTVAAPDIQMTQSPASLSASVGETVTITCRTSENIYSYLAWYQQKPGKSPHLLVYNTKTLAEGVPSRFSGSGSGTQFSLKINSLQPEDFGSYYCQHHYDSPLTFGSGTKLELKR
B2: DVD716 (antibody)
VH: QVQLQQSGAELMKPGASVKISCKASGYTFTSYWIEWIKQRPGHGLEWIGEILPGTGSLNNNEKFRDKATFTADTSSNTAYMQLSSLTSEDSAVYYCARGYRYDGWFAYWGQGTLVTVSAASTKGPSVFPLAPQVQLQQSGAELMKPGASVKISCKASGYTFTSYWIEWIKQRPGHGLEWIGEILPGTGSLNNNEKFRDKATFTADTSSNTAYMQLSSLTSEDSAVYYCARGYRYDGWFAYWGQGTLVTVSA
VL: DIQMTQSPASLSASVGETVTITCRTSENIYSYLAWYQQKPGKSPHLLVYNTKTLAEGVPSRFSGSGSGTQFSLKINSLQPEDFGSYYCQHHYDSPLTFGSGTKLELKRTVAAPSVFIFPPDIQMTQSPASLSASVGETVTITCRTSENIYSYLAWYQQKPGKSPHLLVYNTKTLAEGVPSRFSGSGSGTQFSLKINSLQPEDFGSYYCQHHYDSPLTFGSGTKLELKR
B3: DVD744 (antibody)
VH: QIQLVQSGPELKKPGETVKISCKASGYTFTDYSMHWVKQAPGKGLKWMGWIHTETGEPRYVDDFKGRFAFSLETSASTAYLQINNLKNEDTATYFCARDSYYFGSSYYFDYWGQGTTLTVSSASTKGPSVFPLAPQIQLVQSGPELKKPGETVKISCKASGYTFTDYSMHWVKQAPGKGLKWMGWIHTETGEPRYVDDFKGRFAFSLETSASTAYLQINNLKNEDTATYFCARDSYYFGSSYYFDYWGQGTTLTVSS
VL: DTVMTQSHKFMSTSVGDRVSITCKASQDVSSAVAWYQQKPGQSPKLLIYSASYRYTGVPDRFTGSGSGMDFTFTISSVQAEDLAVYYCQQHYSTPLTFGAGTKLELERTVAAPSVFIFPPDTVMTQSHKFMSTSVGDRVSITCKASQDVSSAVAWYQQKPGQSPKLLIYSASYRYTGVPDRFTGSGSGMDFTFTISSVQAEDLAVYYCQQHYSTPLTFGAGTKLELER
B4: DVD745 (antibody)
VH: QIQLVQSGPELKKPGETVKISCKASGYTFTDYSMHWVKQAPGKGLKWMGWIHTETGEPRYVDDFKGRFAFSLETSASTAYLQINNLKNEDTATYFCARDSYYFGSSYYFDYWGQGTTLTVSSASTKGPQIQLVQSGPELKKPGETVKISCKASGYTFTDYSMHWVKQAPGKGLKWMGWIHTETGEPRYVDDFKGRFAFSLETSASTAYLQINNLKNEDTATYFCARDSYYFGSSYYFDYWGQGTTLTVSS
VL: DTVMTQSHKFMSTSVGDRVSITCKASQDVSSAVAWYQQKPGQSPKLLIYSASYRYTGVPDRFTGSGSGMDFTFTISSVQAEDLAVYYCQQHYSTPLTFGAGTKLELERTVAAPDTVMTQSHKFMSTSVGDRVSITCKASQDVSSAVAWYQQKPGQSPKLLIYSASYRYTGVPDRFTGSGSGMDFTFTISSVQAEDLAVYYCQQHYSTPLTFGAGTKLELER
B5: DVD746 (bispecific antibody)
VH: QVQLQQSGAELMKPGASVKISCKASGYTFTSYWIEWIKQRPGHGLEWIGEILPGTGSLNNNEKFRDKATFTADTSSNTAYMQLSSLTSEDSAVYYCARGYRYDGWFAYWGQGTLVTVSAASTKGPSVFPLAPEVQLQQSGPELVKPGASMKISCKASDYSFTAYTIHWMKQSHGKNLEWIGLINPYNGGTSYNQKFQGRATLTVDKSSSIAYMELLSLTSEDSAVYYCARRGYDREGHYYAMDYWGQGTSVTVSS
VL: DIQMTQSPASLSASVGETVTITCRTSENIYSYLAWYQQKPGKSPHLLVYNTKTLAEGVPSRFSGSGSGTQFSLKINSLQPEDFGSYYCQHHYDSPLTFGSGTKLELKRTVAAPSVFIFPPDIQMTQSPASLAASVGETVTITCRASENIYTFLAWYQQKQGKSPQLLVYTTKTLAEGVPSRFSGSGSGTQFSLKIKSLQPEDFGSYYCQHHYGLPLTFGAGTKLELKR
B6: DVD747 (bispecific antibody)
VH: QVQLQQSGAELMKPGASVKISCKASGYTFTSYWIEWIKQRPGHGLEWIGEILPGTGSLNNNEKFRDKATFTADTSSNTAYMQLSSLTSEDSAVYYCARGYRYDGWFAYWGQGTLVTVSAASTKGPSVFPLAPASTKGPSVFPLAPEVQLQQSGPELVKPGASMKISCKASDYSFTAYTIHWMKQSHGKNLEWIGLINPYNGGTSYNQKFQGRATLTVDKSSSIAYMELLSLTSEDSAVYYCARRGYDREGHYYAMDYWGQGTSVTVSS
VL: DIQMTQSPASLSASVGETVTITCRTSENIYSYLAWYQQKPGKSPHLLVYNTKTLAEGVPSRFSGSGSGTQFSLKINSLQPEDFGSYYCQHHYDSPLTFGSGTKLELKRTVAAPSVFIFPPTVAAPSVFIFPPDIQMTQSPASLAASVGETVTITCRASENIYTFLAWYQQKQGKSPQLLVYTTKTLAEGVPSRFSGSGSGTQFSLKIKSLQPEDFGSYYCQHHYGLPLTFGAGTKLELKR
B7: DVD748 (bispecific antibody)
VH: EVQLQQSGPELVKPGASMKISCKASDYSFTAYTIHWMKQSHGKNLEWIGLINPYNGGTSYNQKFQGRATLTVDKSSSIAYMELLSLTSEDSAVYYCARRGYDREGHYYAMDYWGQGTSVTVSSASTKGPSVFPLAPQVQLQQSGAELMKPGASVKISCKASGYTFTSYWIEWIKQRPGHGLEWIGEILPGTGSLNNNEKFRDKATFTADTSSNTAYMQLSSLTSEDSAVYYCARGYRYDGWFAYWGQGTLVTVSA
VL: DIQMTQSPASLAASVGETVTITCRASENIYTFLAWYQQKQGKSPQLLVYTTKTLAEGVPSRFSGSGSGTQFSLKIKSLQPEDFGSYYCQHHYGLPLTFGAGTKLELKRTVAAPSVFIFPPDIQMTQSPASLSASVGETVTITCRTSENIYSYLAWYQQKPGKSPHLLVYNTKTLAEGVPSRFSGSGSGTQFSLKINSLQPEDFGSYYCQHHYDSPLTFGSGTKLELKR
B8: DVD750 (antibody)
VH: EVQLQQSGPELVQPGASMKISCKASGYSFTDYTMNWVKQSHGKNLEWIGLINPYNGGSRYNQKFMAKATLTVDKSSNTAYMELLSVTSEDSAVYYCARDAGYFGSGFYFDYWGQGTTLTVSSASTKGPSVFPLAPEVQLQQSGPELVQPGASMKISCKASGYSFTDYTMNWVKQSHGKNLEWIGLINPYNGGSRYNQKFMAKATLTVDKSSNTAYMELLSVTSEDSAVYYCARDAGYFGSGFYFDYWGQGTTLTVSS
VL: DIVMTQSHKFMSTSVGDRVSITCKASQDVSTAVAWYQQKPGQSPKLLIYSASYRSTGVPDRFTGSGSGTDFTFTISSVQAEDLAVYYCQQHYSTPTFGAGTKLELKRTVAAPSVFIFPPDIVMTQSHKFMSTSVGDRVSITCKASQDVSTAVAWYQQKPGQSPKLLIYSASYRSTGVPDRFTGSGSGTDFTFTISSVQAEDLAVYYCQQHYSTPTFGAGTKLELKR

These binders were tested against HIV antigen (assay: FRET quenching titration in solution; one value given for outer and inner domain).
B1 was tested, and the Kd was < 0.02 nM.
With B2 the Kd was < 0.02 nM.
B3 showed a Kd of 0.4 nM.
Work on B4 yielded a Kd of 0.4 nM.
B5 was tested, and the Kd was 0.2 nM.
With B6 the Kd was < 0.06 nM.
In the case of B7, the Kd is reported as < 0.03 nM.
B8 was tested, and the Kd was < 0.02 nM.
